In paper PMC12119765, “Unveiling the potential of copper-61 vs. gallium-68 for SSTR PET imaging” (European Journal of Nuclear Medicine and Molecular Imaging, 2025):

Experiments:
in vivo [1] = conditions: male, athymic Swiss Foxn1nu, mouse, intravenous, total radioactivity; for tissue uptake at 1 h: AR42J tumor
Procedure: (§1) Animal studies were approved by the Animal Welfare Committee of the Institute for Nuclear Sciences Applied to Health (ICNAS) of University of Coimbra (ORBEA 05-2024) and by the Portuguese National Authority for Animal Health (DGAV). Athymic male Swiss Foxn1nu mice (28–32 g, 6–8 weeks old) were purchased from ICNAS and housed under pathogen free conditions in individually ventilated cages. To establish the tumor model, animals were injected subcutaneously in the left flank with 3 × 10^6 AR42J cells resuspended in 100 µL of PBS 50 with 50% Matrigel. Tumor growth was monitored twice weekly by caliper measurements and were allowed to grow to a maximum volume of 1 cm^3.
(§2) Mice were sacrificed at 1.5–4.5 h p.i. and perfused with PBS. Organs including brain, heart, lung, liver, kidney, spleen, stomach, intestine, bone, and muscle were collected and weighted. Blood samples were collected via tail vein bleeding at different time points to monitor the residence time of the radiopharmaceuticals in the circulation. After sacrifice, urine was directly collected from the bladder for radio-HPLC analysis of radiopharmaceutical integrity. The radioactivity of each sample was measured using an automated CRC-55tW gamma well counter (Mirion Technologies - Atlanta, GA, USA). Results were expressed as the percentage of injected dose per gram (ID/g) of tissue and presented as the mean ± SEM (N = 3 per radiopharmaceutical).

AR42J tumor-bearing mice = assay: in vivo; conditions: AR42J tumor, 4 h p.i., mean ± SEM, N = 3
Procedure: as §1, §2

healthy control mice = assay: PET/MR imaging in healthy control mice; assay type: in vivo
Procedure: (§3) A set of fiducial markers was used for an optimal PET/MRI co-registration. The breathing rate and body temperature of the animals were monitored throughout the imaging procedures (SA Instruments SA, USA). After the PET scan, a whole-body MRI was performed on a BioSpec 9.4T MRI scanner with a body volume resonator (transmitter/receiver) with the animal in the same position for anatomical co-localization. Anatomical reference images were obtained from axial and coronal multi-slice scans. A set of fiducial markers were used on the animal bed for an optimal PET/MRI co-registration. Quantitative image processing was performed using PMOD (PMOD, v 3.6; PMOD Technologies, Zürich, Switzerland, RRID: SCR_016547). FUSION Tools were used to deliniate volumes of interest (VOIs) on the PET images co-registered with the anatomical MRI. Blood samples were collected at 1, 2, and 4 h after injection for measurement of whole-blood radioactivity concentrations.

in vivo [2] = conditions: male, athymic Swiss Foxn1nu, mouse, whole blood, total radioactivity
Procedure: as §3, §2

[3] = system: SSTR-expressing AR42J cells; assay: Cell uptake and internalization studies in SSTR-expressing AR42J cells; assay type: cell-based, rat; conditions: for Intracellular (internalized) activity: 2 h incubation time, 0.5 nM, Fig. 2C, percentage per million cells; for Maximum total uptake into AR42J: at 2 h, 0.5 nM radiolabeled peptide; for Membrane-bound fraction over time: glycine buffer wash fraction, 15 min to 2 h
Procedure: The AR42J cell line, a natural SSTR-overexpressing epithelial-like cell isolated from a rat pancreatic tumor, was purchased from American Type Culture Collection (ATCC, CRL-1492) (Manassas, VA, USA) and cultured in F-12 K medium (ATCC, Catalog No. 30-2004) supplemented with 20% heat-inactivated fetal bovine serum (FBS, Gibco) and 1% PenStrep. The cells were maintained under standard adherent conditions in a humidified incubator with 5% CO2 at 37° C.
Cells were incubated at 37 °C for a maximum of 2–4 h (15 min, 30 min, 1 h, 2 h, and 4 h) for ^68Ga-based and ^61Cu-based radiopharmaceuticals, respectively. At the indicated time points, the cellular uptake was terminated by washing the cells with PBS. Cell surface-bound radioactivity was removed by an acid wash (50 mM glycine, pH 2.8) at RT for 5 min. The pH was neutralized with PBS, and the cells were lysed by incubation with 1 M NaOH at 37 °C for 5 min to determine internalized radioactivity. Each experiment was performed in triplicate. […] For blocking studies, parallel experiments were performed as described above, but cells were incubated in the presence of DOTA-TATE precursor (0.5 µM) at 37 °C for the same time points.

[4] = urine sample collected 4 h after i.v. injection
Procedure: as §2

[5] = In vitro stability in the final formulation (10% EtOH) by radioHPLC; assay type: physicochemical
Procedure: The HPLC method used is detailed in Table 1.
The stability of [^61Cu]Cu-NOTA-TATE was tested in the final formulation up to 6 h after EOS. At different time points (T0, T0 + 2, T0 + 4 and T0 + 6 h) aliquots were taken and measured using the previously described radioHPLC method.

[6] = system: AR42J subcutaneous tumor-bearing mice; conditions: 1 h p.i., i.v.
Procedure: as §1
as §3, with “Anatomical reference images were obtained from axial and coronal multi-slice scans. A set of fiducial markers were used on the animal bed for an optimal PET/MRI co-registration.” left out, “FUSION Tools were used to deliniate volumes of interest (VOIs) on the PET images co-registered with the anatomical MRI.” left out

tumor = system: tumor; parameters: method as in PMID 32297029; conditions: cited from earlier work

C[C@@H](O)[C@H](NC(=O)[C@@H]1CSSC[C@H](NC(=O)[C@@H](Cc2ccccc2)NC(=O)CN2CCN(CC(=O)O)CCN(CC(=O)O)CC2)C(=O)N[C@@H](Cc2ccc(O)cc2)C(=O)N[C@H](Cc2c[nH]c3ccccc23)C(=O)N[C@@H](CCCCN)C(=O)N[C@@H]([C@@H](C)O)C(=O)N1)C(=O)O [[^61Cu]Cu-NOTA-TATE, metal not drawn]
tissue uptake at 1 h (in vivo [1]): 13.2 ± 1.86 %ID/g | tissue to tissue ratio at 1 h (in vivo [1]; tumor and kidney): 4.25 ± 1.09 | tissue to tissue ratio at 4 h (in vivo [1]; tumor and kidney): 17.3 ± 4.99 | tissue to tissue ratio at 1 h (in vivo [1]; tumor and liver): 14.1 ± 4.29 | tissue to tissue ratio at 4 h (in vivo [1]; tumor and liver): 21 ± 1.28 | tissue to tissue ratio at 1 h (in vivo [1]; tumor and muscle): 255 ± 64.7 | tissue to tissue ratio at 4 h (in vivo [1]; tumor and muscle): 495 ± 109 | Tumor uptake (tumor activity) (AR42J tumor-bearing mice): 12.81 ± 0.57 % ID/g | Biodistribution profile in PET/MR images (healthy control mice; healthy control mice, 1 h and 4 h p.i.): rapid clearance with marked accumulation in the kidneys and bladder | tissue uptake at 2 h (in vivo [2]; intravenous): 0.13 ± 0.02 %ID/g | tissue uptake at 4 h (in vivo [2]; intravenous): 0.09 ± 0.004 %ID/g | tissue uptake at 1 h (in vivo [2]; iv): 0.19 ± 0.003 %ID/g | Intracellular (internalized) activity [3]: 51.4% | Maximum total uptake into AR42J [3]: 58.6 ± 3.6 %/10^6 cells | Membrane-bound fraction over time [3]: ≤ 10% | Intact radiopharmaceutical in urine (radioHPLC) [4]: 100% | Time stable after EOS ([5]; after the EOS): at least 6 h | In vitro stability (radiochemical purity by radioHPLC) ([5]; final formulation (10% EtOH), after 6 h of incubation): > 95%

[Cl][Cu][Cl] [[^61Cu]CuCl2, copper chloride, reference compound]
Biodistribution profile in PET/MR images (healthy control mice; healthy mice, 1 h after injection): accumulation profile of free copper in the liver and the intestine

C[C@@H](O)[C@H](NC(=O)[C@@H]1CSSC[C@H](NC(=O)[C@@H](Cc2ccccc2)NC(=O)CN2CCN(CC(=O)O)CCN(CC(=O)O)CCN(CC(=O)O)CC2)C(=O)N[C@@H](Cc2ccc(O)cc2)C(=O)N[C@H](Cc2c[nH]c3ccccc23)C(=O)N[C@@H](CCCCN)C(=O)N[C@@H]([C@@H](C)O)C(=O)N1)C(=O)O [[^68Ga]Ga-DOTA-TATE, metal not drawn, reference compound]
tissue uptake at 1 h (in vivo [1]): 8.73 ± 0.45 %ID/g | Biodistribution profile in PET/MR images [6]: significant tumor and bladder accumulation | Intracellular (internalized) activity [3]: 51.2% | Maximum total uptake into AR42J [3]: 62.5 ± 1.9 %/10^6 cells | Membrane-bound fraction over time [3]: ≤ 10% | Tumor uptake (tumor): 3.14 ± 2.07%
